Data from patent US20200199244A1 (published 2020).
Residue numbers refer to the chain shown, from its start.

B1: BMS3h-33 (other)
VH: EVQLLESGGGLVQPGGSLRLSCAASGFTFLSYPMHWVRQAPGKGLEWVSSIDSRGSVTYYADSVKGRFTISRDNSKNTLYLQMNSLRAEDTAVYYCAKGHSWTFDYWGQGTLVTVSS
B2: BMS3h-52 (other)
VH: EVQLLESGGGLVQPGESLRLSCAASGFTFSAYDMTWVRQAPGKGLEWVSRINPTGSYTYYADSVKGRFTISRDNSKNTLYLQMNSLRAEDTAVYYCAKAKIPNLVFDYWGQGTLVTVSS
B3: BMS3h-57 (other)
VH: EVQLLESGGGLVQPGGSLRLSCAASGFTFSHEDMTWVRQAPGKGLEWVSSISPNGWDTYYADSVKGRFTISRDNSKNTLYLQMNSLRAEDTAVYYCAKRTRSKFDYWGQGTLVTVSS
B4: BMS3h-8 (other)
VH: EVQLLESGGGLVQPGGSLRLSCAASGFTFPSEEMSWVRQAPGKGLEWVSRISADGANTYYADSVKGRFTISRDNSKNTLYLQMNSLRAEDAAVYYCAKGRVPDLLFDYWGQGTLVTVSS
B5: BMS3h-61 (other)
VH: EVQLLESGGGLVQPGGSLRLSCAASGFTFGTTEMAWVRQAPGKGLEWVSSIGSAGAWTYYADSVKGRFTISRDNSKNTLYLQMNSLRAEDTAVYYCAKIGGHPQGQFDYWGQGTLVTVSS
B6: BMS3h-131-6 (other)
VL: DIQMTVSPSSLSASVGDRVTITCRANSSILWALAWYQQKPGKAPKLLIESSSGLQSGVPSRFSGSGSGTDFTLTISSLQPEDFATYYCVQNAVWPGTFGQGTKVEIKR
B7: BMS3h-131-14 (other)
VL: B6 VL with V6Q, S67T, S77G, G99D
B8: BMS3h-28 (other)
VH: EVQLLESGGGLVQPGGSLRLSCAASGFTFGDVPMSWVRQAPGKGLEWVSRIDPYGSNTYYADSVKGRFTISRDNSKNTLYLQMNSLRAEDTAVYYCAKGIMPSLTFDYWGQGTLVTVSS
B9: BMS3h-193 (other)
VL: DIQMTQSPSSLSASVGDRVTITCRASQTIERRLNWYQQKPGKAPKLLIYLASRLQSGVPSRFSGSGSGTDFTLTISSLQPEDFATYYCHQYASPPLTFGQGTKVEIKR
B10: BMS3h-193-12 (other)
VL: B9 VL with A92E
B11: BMS3h-193-19 (other)
VL: B9 VL with D70E, A92E
B12: BMS3h-193-16 (other)
VL: B9 VL with T28A, F98L
B13: BMS3h-56-258 (other)
VH: EVQLLESGGGLVQPGGSLRLSCAASGFTFRDYEMWWVRQAPGKGLERVSAINPQGTRTYYADSVKGRFTISRDNSKNTLYLQMNSLRAEDTAVYYCAKLPFYFHEWGQGTLVTVSS
B14: BMS3h-56-269 (other)
VH: B13 VH with Y102R, H104S, E105D, W106R
B15: BMS3h-56-21 (other)
VH: B13 VH with A97L, Y102T, H104E, E105D
B16: BMS3h-56-15 (other)
VH: B13 VH with Q39R, Y102T, H104E, E105D
B17: BMS3h-56-261 (other)
VH: B13 VH with Y102F, H104Q
B18: BMS3h-56-8 (other)
VH: B13 VH with L18R, Y102T, H104E, E105D
B19: BMS3h-56-19 (other)
VH: B13 VH with Y95H, Y102T, H104E, E105D
B20: BMS3h-56-262 (other)
VH: B13 VH with F101Q, Y102L, E105D, W106R
B21: BMS3h-56-9 (other)
VH: B13 VH with K65M, Y102M, H104D, E105D, W106R
B22: BMS3h-56-265 (other)
VH: B13 VH with F101Q, Y102L, H104Q, E105D
B23: BMS3h-56-266 (other)
VH: B13 VH with Y102F
B24: BMS3h-56-270 (other)
VH: B13 VH with F101T, Y102L, H104Q, E105D
B25: BMS3h-56-6 (other)
VH: B13 VH with T28S, V37Y, Y102I, H104D, E105N, W106R
B26: BMS3h-56-7 (other)
VH: B13 VH with A92S, Y95H, L99P, Y102I, H104G, E105D, Q108P
B27: BMS3h-48 (other)
VH: EVQLLESGGGLVQPGGSLRLSCAASGFTFADHGMTWVRQAPGKGLEWVSGIGPSGEATYYADSVKGRFTISRDNSKNTLYLQMNSLRAEDTAVYYCAKDRIPNLVFDYWGQGTLVTVSS
B28: BMS3h-5 (other)
VH: EVQLLESGGGLVQPGGSLRLSCAASGFTFDEHDMSWVRQAPGKGLEWVSRIGPDGFHTYYADSVKGRFTISRDNSKNTLYLQMNSLRAEDTAVYYCAKGRIPTLHFDYWGQGTLVTVSS

These binders were tested against human CD40 (human, UniProt P25942 21-277) (assay: cell-based or functional assay).
Sequence of human CD40 (P25942 21-277 limits assumed): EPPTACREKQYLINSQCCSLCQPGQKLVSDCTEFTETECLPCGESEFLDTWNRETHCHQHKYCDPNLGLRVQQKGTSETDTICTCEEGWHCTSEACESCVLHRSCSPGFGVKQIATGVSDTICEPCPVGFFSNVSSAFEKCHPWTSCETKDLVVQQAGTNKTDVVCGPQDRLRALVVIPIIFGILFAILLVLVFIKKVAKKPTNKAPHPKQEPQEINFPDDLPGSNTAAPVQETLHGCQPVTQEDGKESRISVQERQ

B1 and B2 cannot be ordered by “CHO-hCD40L-driven Human B Cell Proliferation EC50” value: over 7000 nM for the first, over 7000 nM for the second.

B3 and B4 cannot be ordered by “CHO-hCD40L-driven Human B Cell Proliferation EC50” value: over 7000 nM for the first, over 7000 nM for the second.

B5 and B8 cannot be ordered by “CHO-hCD40L-driven Human B Cell Proliferation EC50” value: over 7000 nM for the first, over 7000 nM for the second.

B13 and B14 are within 1.5-fold of each other in “CHO-hCD40L-driven Human B Cell Proliferation EC50” value: 11 nM for the first, 15 nM for the second.

B17 and B23 are within 1.5-fold of each other in “CHO-hCD40L-driven Human B Cell Proliferation EC50” value: 25.5 nM for the first, 19.5 nM for the second.

B27 and B28 cannot be ordered by “CHO-hCD40L-driven Human B Cell Proliferation EC50” value: over 7000 nM for the first, over 7000 nM for the second.

B1 and B2 cannot be ordered by “hIZCD40L-driven Human B Cell Proliferation EC50” value: over 7000 nM for the first, over 7000 nM for the second.

B3 and B4 cannot be ordered by “hIZCD40L-driven Human B Cell Proliferation EC50” value: over 7000 nM for the first, over 7000 nM for the second.

First: B5
Second: B6
The “hIZCD40L-driven Human B Cell Proliferation EC50” value of the first is higher: over 7000 nM for the first, 141 nM for the second.

Compared with B7, B8 is higher in “hIZCD40L-driven Human B Cell Proliferation EC50” value: 24 nM for the first, over 7000 nM for the second.

Going from B9 to B10, the “hIZCD40L-driven Human B Cell Proliferation EC50” value falls from over 7000 nM to 277 nM.

Going from B11 to B12, the “hIZCD40L-driven Human B Cell Proliferation EC50” value rises from 233 nM to 387 nM (1.7-fold).

Compared with B13, B14 is 1.8-fold higher in “hIZCD40L-driven Human B Cell Proliferation EC50” value: 0.079 nM for the first, 0.14 nM for the second.

B15 and B16 are the same in “hIZCD40L-driven Human B Cell Proliferation EC50” value: 2 nM for the first, 2 nM for the second.

Compared with B17, B18 is 29-fold higher in “hIZCD40L-driven Human B Cell Proliferation EC50” value: 0.17 nM for the first, 5 nM for the second.

First: B19
Second: B20
The “hIZCD40L-driven Human B Cell Proliferation EC50” value of the first is 9.7-fold higher: 3 nM for the first, 0.31 nM for the second.

Going from B21 to B22, the “hIZCD40L-driven Human B Cell Proliferation EC50” value falls from 3 nM to 0.36 nM (8.3-fold).

Compared with B23, B24 is 1.6-fold higher in “hIZCD40L-driven Human B Cell Proliferation EC50” value: 0.19 nM for the first, 0.31 nM for the second.

Going from B25 to B26, the “hIZCD40L-driven Human B Cell Proliferation EC50” value rises from 4 nM to 8 nM (2-fold).

B27 and B28 cannot be ordered by “hIZCD40L-driven Human B Cell Proliferation EC50” value: over 7000 nM for the first, over 7000 nM for the second.

In order of rising “CHO-hCD40L-driven DC Activation IL-12 EC50” value:
1. B13  1.52 nM
2. B14  1.8 nM
3. B23  2.8 nM
4. B17  3 nM

In order of falling “T-B cell MLR EC50” value:
1. B17  17 nM
2. B23  13.8 nM
3. B14  9.7 nM
4. B13  8.7 nM
